In article PMC3618327, “Genetic and Biochemical Characterization of the MinC-FtsZ Interaction in Bacillus subtilis” (PLoS ONE, 2013):

B1: His6-FtsZ, wild-type Bacillus subtilis FtsZ (natural protein, B. subtilis, UniProt P17865 1-382, looked up)
chain: MLEFETNIDGLASIKVIGVGGGGNNAVNRMIENEVQGVEYIAVNTDAQALNLSKAEVKMQIGAKLTRGLGAGANPEVGKKAAEESKEQIEEALKGADMVFVTAGMGGGTGTGAAPVIAQIAKDLGALTVGVVTRPFTFEGRKRQLQAAGGISAMKEAVDTLIVIPNDRILEIVDKNTPMLEAFREADNVLRQGVQGISDLIATPGLINLDFADVKTIMSNKGSALMGIGIATGENRAAEAAKKAISSPLLEAAIDGAQGVLMNITGGTNLSLYEVQEAADIVASASDQDVNMIFGSVINENLKDEIVVTVIATGFIEQEKDVTKPQRPSLNQSIKTHNQSVPKREPKREEPQQQNTVSRHTSQPADDTLDIPTFLRNRNKRG
notes: FtsZ of Bacillus subtilis, the ftsZ gene cloned into pET28a; also called WT; FtsZ^WT; source: E. coli BL21(DE3)-RIL, purified (two-step ammonium sulfate and GTP+Ca2+ precipitation); not shown: His6, N-terminal, kept

Experiments:
[1] = biological target: T1, MinC-His6, wild-type Bacillus subtilis MinC (B. subtilis, UniProt Q01463 1-226); experiment: cell-based or functional assay
T1 sequence (looked up): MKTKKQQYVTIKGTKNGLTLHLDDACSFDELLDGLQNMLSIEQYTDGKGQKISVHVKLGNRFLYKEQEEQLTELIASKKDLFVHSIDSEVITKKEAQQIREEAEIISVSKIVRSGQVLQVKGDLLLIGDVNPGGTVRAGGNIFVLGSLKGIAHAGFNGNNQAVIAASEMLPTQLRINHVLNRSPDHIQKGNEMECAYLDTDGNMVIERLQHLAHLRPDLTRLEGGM

[2] = biological target: the molecule itself; experiment: sedimentation of polymers; 7 µM FtsZ in Mes/NaOH 50 mM, MgCl2 10 mM, KCl 133 mM, DEAE-dextran 0.6 mg/mL, pH 6.5, GTP 2 mM, room temperature, 100.000 rpm 15 min; pellet and supernatant on SDS-PAGE
[3] = biological target: B1; experiment: other fluorescence titration; intrinsic Trp fluorescence of 1 µM MinC Y44W with 0.5-3 µM FtsZ in solution; Tris/HCl 20 mM, KCl 100 mM, EDTA 5 mM, pH 7.5; excitation 295 nm, emission 320-360 nm; the interaction was inhibited by salt (1 M KCl); conditions: both partners purified

Row | Binder | light scattering signal of FtsZ polymerization with MinC (7 µM FtsZ, 20 µM MinC) relative to the signal in the absence of MinC [1] | binding result [2] | Kd [3]
1 | His6-FtsZ R376T (natural protein, B. subtilis, UniProt P17865 1-382, looked up, FtsZ of Bacillus subtilis, mutant in the C-terminal peptide (CTP); source: E. coli BL21(DE3)-RIL, purified (two-step ammonium sulfate and GTP+Ca2+ precipitation); not shown: His6, N-terminal, kept) MLEFETNIDGLASIKVIGVGGGGNNAVNRMIENEVQGVEYIAVNTDAQALNLSKAEVKMQIGAKLTRGLGAGANPEVGKKAAEESKEQIEEALKGADMVFVTAGMGGGTGTGAAPVIAQIAKDLGALTVGVVTRPFTFEGRKRQLQAAGGISAMKEAVDTLIVIPNDRILEIVDKNTPMLEAFREADNVLRQGVQGISDLIATPGLINLDFADVKTIMSNKGSALMGIGIATGENRAAEAAKKAISSPLLEAAIDGAQGVLMNITGGTNLSLYEVQEAADIVASASDQDVNMIFGSVINENLKDEIVVTVIATGFIEQEKDVTKPQRPSLNQSIKTHNQSVPKREPKREEPQQQNTVSRHTSQPADDTLDIPTFLTNRNKRG | 70% | binds | 
2 | MinC Y44W (tryptophan mutant of Bacillus subtilis MinC) (natural protein, B. subtilis, UniProt Q01463 1-226, looked up, MinC of Bacillus subtilis with tryptophan at position 44 of the N-terminal domain; The methods name both His6-MinC (pET28a) and MinC-His6 (pET24b); also called tryptophan mutant MinC Y44W) MKTKKQQYVTIKGTKNGLTLHLDDACSFDELLDGLQNMLSIEQWTDGKGQKISVHVKLGNRFLYKEQEEQLTELIASKKDLFVHSIDSEVITKKEAQQIREEAEIISVSKIVRSGQVLQVKGDLLLIGDVNPGGTVRAGGNIFVLGSLKGIAHAGFNGNNQAVIAASEMLPTQLRINHVLNRSPDHIQKGNEMECAYLDTDGNMVIERLQHLAHLRPDLTRLEGGM |  |  | ~1000 nM
3 | B1 |  | binds | 
4 | His6-FtsZ T111A (natural protein, B. subtilis, UniProt P17865 1-382, looked up, FtsZ of Bacillus subtilis, promiscuous mutant in the N-terminal subdomain; source: E. coli BL21(DE3)-RIL, purified (two-step ammonium sulfate and GTP+Ca2+ precipitation); not shown: His6, N-terminal, kept) MLEFETNIDGLASIKVIGVGGGGNNAVNRMIENEVQGVEYIAVNTDAQALNLSKAEVKMQIGAKLTRGLGAGANPEVGKKAAEESKEQIEEALKGADMVFVTAGMGGGTGAGAAPVIAQIAKDLGALTVGVVTRPFTFEGRKRQLQAAGGISAMKEAVDTLIVIPNDRILEIVDKNTPMLEAFREADNVLRQGVQGISDLIATPGLINLDFADVKTIMSNKGSALMGIGIATGENRAAEAAKKAISSPLLEAAIDGAQGVLMNITGGTNLSLYEVQEAADIVASASDQDVNMIFGSVINENLKDEIVVTVIATGFIEQEKDVTKPQRPSLNQSIKTHNQSVPKREPKREEPQQQNTVSRHTSQPADDTLDIPTFLRNRNKRG |  | binds | 
5 | His6-FtsZ K243R (natural protein, B. subtilis, UniProt P17865 1-382, looked up, FtsZ of Bacillus subtilis, mutant from the error-prone PCR library; source: E. coli BL21(DE3)-RIL, purified (two-step ammonium sulfate and GTP+Ca2+ precipitation); not shown: His6, N-terminal, kept) MLEFETNIDGLASIKVIGVGGGGNNAVNRMIENEVQGVEYIAVNTDAQALNLSKAEVKMQIGAKLTRGLGAGANPEVGKKAAEESKEQIEEALKGADMVFVTAGMGGGTGTGAAPVIAQIAKDLGALTVGVVTRPFTFEGRKRQLQAAGGISAMKEAVDTLIVIPNDRILEIVDKNTPMLEAFREADNVLRQGVQGISDLIATPGLINLDFADVKTIMSNKGSALMGIGIATGENRAAEAAKRAISSPLLEAAIDGAQGVLMNITGGTNLSLYEVQEAADIVASASDQDVNMIFGSVINENLKDEIVVTVIATGFIEQEKDVTKPQRPSLNQSIKTHNQSVPKREPKREEPQQQNTVSRHTSQPADDTLDIPTFLRNRNKRG |  | binds | 
6 | His6-FtsZ D287V (natural protein, B. subtilis, UniProt P17865 1-382, looked up, FtsZ of Bacillus subtilis, mutant from the error-prone PCR library; source: E. coli BL21(DE3)-RIL, purified (two-step ammonium sulfate and GTP+Ca2+ precipitation); not shown: His6, N-terminal, kept) MLEFETNIDGLASIKVIGVGGGGNNAVNRMIENEVQGVEYIAVNTDAQALNLSKAEVKMQIGAKLTRGLGAGANPEVGKKAAEESKEQIEEALKGADMVFVTAGMGGGTGTGAAPVIAQIAKDLGALTVGVVTRPFTFEGRKRQLQAAGGISAMKEAVDTLIVIPNDRILEIVDKNTPMLEAFREADNVLRQGVQGISDLIATPGLINLDFADVKTIMSNKGSALMGIGIATGENRAAEAAKKAISSPLLEAAIDGAQGVLMNITGGTNLSLYEVQEAADIVASASVQDVNMIFGSVINENLKDEIVVTVIATGFIEQEKDVTKPQRPSLNQSIKTHNQSVPKREPKREEPQQQNTVSRHTSQPADDTLDIPTFLRNRNKRG |  | binds | 
